Measured values taken from patent US20250064909A1 (MEDIMABBIO, published 2025).

T1: recombinant human TIGIT (Sino Biological) (human, UniProt Q495A1 22-138)
T1 construct: Bought protein; NP_776160.2; also called human TIGIT antigen; hTIGIT
T1 sequence: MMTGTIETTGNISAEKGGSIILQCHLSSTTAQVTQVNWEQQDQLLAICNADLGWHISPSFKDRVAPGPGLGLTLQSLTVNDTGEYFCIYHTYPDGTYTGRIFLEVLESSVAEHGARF


Columns and labels:
[1] = target: T1, recombinant human TIGIT (Sino …); assay: SPR (Biacore T200), single cycle kinetics, IgG from supernatant captured on anti-human chip, TIGIT as analyte, 1:1 fit;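 also: measured at 25 °C in HBS-P+ with 1% BSA, four ascending TIGIT concentrations, 210 s association per step, one final 900 s dissociation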
Procedure: (§1) The kinetic test was conducted at 25° C. using the Biacore T200 running Biacore T200 Control software V2.0.1 and Evaluation software V3.0 (GE Healthcare, Uppsala, Sweden).
(§2) To reduce non-specific binding to the reference surface, HBS-P+ (GE Healthcare, Uppsala, Sweden) supplemented with 1% BSA w/v (Sigma, Dorset, UK) was used as the running buffer and was also used for dilution of ligand and analyte. The supernatant containing IgG was diluted in the running buffer to 1 μg/mL. At the beginning of each cycle, the antibody was loaded onto Fc2, Fc3, and Fc4 on the anti-human sensor chip (GE Healthcare, Little Chalfont, UK). […] Then, the surface was allowed to stabilize.
(§3) To minimize potential mass transfer effects, recombinant human TIGIT (from Sino Biological) was used as the analyte and injected at a flow rate of 40 μl/min to obtain Single cycle kinetic data. […] For each of the four increasing antigen concentrations, the association phases were monitored for 210 seconds, and after the last antigen injection, a single dissociation phase was measured for 900 seconds. The sensor chip surface was regenerated by a single injection of 3 M MgCl₂.

[2] = target: T1, recombinant human TIGIT (Sino …); assay: SPR single cycle kinetics; KD divided by KD of the VH0/Vκ0 chimeric antibody;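 also: biacore T200 SPR at 25 °C, IgG captured on anti-human chip, TIGIT analyte in four rising concentrations, 210 s association each, 900 s dissociation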
Procedure: as §1, §2, §3

Binder	Kd [1] [nM]	koff [1] [s⁻¹]	kon [1] [M⁻¹ s⁻¹]	Relative KD [2]
7A6 VH3/Vκ3 humanized antibody (human IgG1, kappa) (antibody, V domains shown, Tested as IgG in supernatant of transiently transfected HEK293 EBNA cells) VH: QVQLQESGPGLVKPSQTLSLTCTVTGYSITSDYAWNWIRQPPGKGLEWMGYISYSGSARYNPSLKSRVTISRDTSKNQFSLKLSSVTAEDTATYYCARKGYPAYFAYWGQGTLVTVSS VL: DIQMTQSPSSLSASVGDRVSITCKASQDVSTAVAWYQQKPGQAPRLLIYSASYRYTGVPDRFSGSGSGTDFTLTISSLQAEDVAVYYCQHHYSTPYTFGQGTKLEIKR	0.903	0.0015	1.66e+06	1.38
7A6 VH2/Vκ1 humanized antibody (human IgG1, kappa) (antibody, V domains shown, Tested as IgG in supernatant of transiently transfected HEK293 EBNA cells) VH: DVQLQESGPGLVKPSQTLSLTCTVTGYSITSDYAWNWIRQPPGKGLEWMGYISYSGSARYNPSLKSRITISRDTSKNQFSLKLSSVTAEDTATYYCARKGYPAYFAYWGQGTLVTVSS VL: DIVMTQSHSFLSASVGDRVSITCKASQDVSTAVAWYQQKPGQAPELLIYSASYRYTGVPDRFTGSGSGTDFTLTISSLQAEDVAVYYCQHHYSTPYTFGQGTKLEMKR	0.715	0.00168	2.36e+06	1.1
7A6 VH2/Vκ5 humanized antibody (human IgG1, kappa) (antibody, V domains shown, Tested as IgG in supernatant of transiently transfected HEK293 EBNA cells) VH: DVQLQESGPGLVKPSQTLSLTCTVTGYSITSDYAWNWIRQPPGKGLEWMGYISYSGSARYNPSLKSRITISRDTSKNQFSLKLSSVTAEDTATYYCARKGYPAYFAYWGQGTLVTVSS VL: DIQMTQSPSSLSASVGDRVSITCKASQDVSTAVAWYQQKPGQAPRLLIYSASYRYTGVPDRFSGSGSGTDFTLTISSLQPEDFATYYCQHHYSTPYTFGQGTKLEIKR	0.754	0.0013	1.72e+06	1.16
7A6 VH2/Vκ3 humanized antibody (human IgG1, kappa) (antibody, V domains shown, Tested as IgG in supernatant of transiently transfected HEK293 EBNA cells) VH: DVQLQESGPGLVKPSQTLSLTCTVTGYSITSDYAWNWIRQPPGKGLEWMGYISYSGSARYNPSLKSRITISRDTSKNQFSLKLSSVTAEDTATYYCARKGYPAYFAYWGQGTLVTVSS VL: DIQMTQSPSSLSASVGDRVSITCKASQDVSTAVAWYQQKPGQAPRLLIYSASYRYTGVPDRFSGSGSGTDFTLTISSLQAEDVAVYYCQHHYSTPYTFGQGTKLEIKR	0.897	0.00134	1.49e+06	1.38
7A6 VH1/Vκ1 humanized antibody (human IgG1, kappa) (antibody, V domains shown, Tested as IgG in supernatant of transiently transfected HEK293 EBNA cells) VH: DVQLQESGPGLVKPSQTLSLTCTVTGYSITSDYAWNWIRQPPGKGLEWMGYISYSGSARYNPSLKSRITISRDTSMNQFSLKLNSVTAEDTATYYCARKGYPAYFAYWGQGTLVTVSS VL: DIVMTQSHSFLSASVGDRVSITCKASQDVSTAVAWYQQKPGQAPELLIYSASYRYTGVPDRFTGSGSGTDFTLTISSLQAEDVAVYYCQHHYSTPYTFGQGTKLEMKR	0.554	0.00129	2.33e+06	0.85
7A6 VH2/Vκ2 humanized antibody (human IgG1, kappa) (antibody, V domains shown, Tested as IgG in supernatant of transiently transfected HEK293 EBNA cells) VH: DVQLQESGPGLVKPSQTLSLTCTVTGYSITSDYAWNWIRQPPGKGLEWMGYISYSGSARYNPSLKSRITISRDTSKNQFSLKLSSVTAEDTATYYCARKGYPAYFAYWGQGTLVTVSS VL: DIVMTQSPSSLSASVGDRVSITCKASQDVSTAVAWYQQKPGQAPRLLIYSASYRYTGVPDRFTGSGSGTDFTLTISSLQAEDVAVYYCQHHYSTPYTFGQGTKLEIKR	0.961	0.00158	1.65e+06	1.47
7A6 VH1/Vκ2 humanized antibody (human IgG1, kappa) (antibody, V domains shown, Tested as IgG in supernatant of transiently transfected HEK293 EBNA cells) VH: DVQLQESGPGLVKPSQTLSLTCTVTGYSITSDYAWNWIRQPPGKGLEWMGYISYSGSARYNPSLKSRITISRDTSMNQFSLKLNSVTAEDTATYYCARKGYPAYFAYWGQGTLVTVSS VL: DIVMTQSPSSLSASVGDRVSITCKASQDVSTAVAWYQQKPGQAPRLLIYSASYRYTGVPDRFTGSGSGTDFTLTISSLQAEDVAVYYCQHHYSTPYTFGQGTKLEIKR	0.811	0.00146	1.8e+06	1.24
7A6 VH2/Vκ4 humanized antibody (human IgG1, kappa) (antibody, V domains shown, Tested as IgG in supernatant of transiently transfected HEK293 EBNA cells) VH: DVQLQESGPGLVKPSQTLSLTCTVTGYSITSDYAWNWIRQPPGKGLEWMGYISYSGSARYNPSLKSRITISRDTSKNQFSLKLSSVTAEDTATYYCARKGYPAYFAYWGQGTLVTVSS VL: DIQMTQSPSSLSASVGDRVTITCRASQDVSTAVAWYQQKPGQAPRLLIYSASYRYTGVPDRFSGSGSGTDFTLTISSLQAEDVAVYYCQHHYSTPYTFGQGTKLEIKR	1.03	0.00181	1.75e+06	1.58
7A6 VH1/Vκ3 humanized antibody (human IgG1, kappa) (antibody, V domains shown, Tested as IgG in supernatant of transiently transfected HEK293 EBNA cells) VH: DVQLQESGPGLVKPSQTLSLTCTVTGYSITSDYAWNWIRQPPGKGLEWMGYISYSGSARYNPSLKSRITISRDTSMNQFSLKLNSVTAEDTATYYCARKGYPAYFAYWGQGTLVTVSS VL: DIQMTQSPSSLSASVGDRVSITCKASQDVSTAVAWYQQKPGQAPRLLIYSASYRYTGVPDRFSGSGSGTDFTLTISSLQAEDVAVYYCQHHYSTPYTFGQGTKLEIKR	0.963	0.00182	1.89e+06	1.48
7A6 VH1/Vκ4 humanized antibody (human IgG1, kappa) (antibody, V domains shown, Tested as IgG in supernatant of transiently transfected HEK293 EBNA cells) VH: DVQLQESGPGLVKPSQTLSLTCTVTGYSITSDYAWNWIRQPPGKGLEWMGYISYSGSARYNPSLKSRITISRDTSMNQFSLKLNSVTAEDTATYYCARKGYPAYFAYWGQGTLVTVSS VL: DIQMTQSPSSLSASVGDRVTITCRASQDVSTAVAWYQQKPGQAPRLLIYSASYRYTGVPDRFSGSGSGTDFTLTISSLQAEDVAVYYCQHHYSTPYTFGQGTKLEIKR	0.876	0.00167	1.91e+06	1.34
7A6 VH3/Vκ1 humanized antibody (human IgG1, kappa) (antibody, V domains shown, Tested as IgG in supernatant of transiently transfected HEK293 EBNA cells) VH: QVQLQESGPGLVKPSQTLSLTCTVTGYSITSDYAWNWIRQPPGKGLEWMGYISYSGSARYNPSLKSRVTISRDTSKNQFSLKLSSVTAEDTATYYCARKGYPAYFAYWGQGTLVTVSS VL: DIVMTQSHSFLSASVGDRVSITCKASQDVSTAVAWYQQKPGQAPELLIYSASYRYTGVPDRFTGSGSGTDFTLTISSLQAEDVAVYYCQHHYSTPYTFGQGTKLEMKR	0.715	0.00155	2.17e+06	1.1
7A6 VH1/Vκ5 humanized antibody (human IgG1, kappa) (antibody, V domains shown, Tested as IgG in supernatant of transiently transfected HEK293 EBNA cells) VH: DVQLQESGPGLVKPSQTLSLTCTVTGYSITSDYAWNWIRQPPGKGLEWMGYISYSGSARYNPSLKSRITISRDTSMNQFSLKLNSVTAEDTATYYCARKGYPAYFAYWGQGTLVTVSS VL: DIQMTQSPSSLSASVGDRVSITCKASQDVSTAVAWYQQKPGQAPRLLIYSASYRYTGVPDRFSGSGSGTDFTLTISSLQPEDFATYYCQHHYSTPYTFGQGTKLEIKR	0.717	0.00129	1.8e+06	1.1

Second part, the binder after the results:

Kd [1] [nM]	koff [1] [s⁻¹]	kon [1] [M⁻¹ s⁻¹]	Relative KD [2]	Binder
0.616	0.00107	1.73e+06	0.94	7A6 VH4/Vκ1 humanized antibody (human IgG1, kappa) (antibody, V domains shown, Tested as IgG in supernatant of transiently transfected HEK293 EBNA cells) VH: QVQLQESGPGLVKPSQTLSLTCTVTGYSITSDYAWNWIRQPPGKGLEWMGYISYSGSARYNPSLKSRVTISRDTSKNQFSLKLSSVTAADTAVYYCARKGYPAYFAYWGQGTLVTVSS VL: DIVMTQSHSFLSASVGDRVSITCKASQDVSTAVAWYQQKPGQAPELLIYSASYRYTGVPDRFTGSGSGTDFTLTISSLQAEDVAVYYCQHHYSTPYTFGQGTKLEMKR
0.944	0.00175	1.85e+06	1.45	7A6 VH4/Vκ3 humanized antibody (human IgG1, kappa) (antibody, V domains shown, Tested as IgG in supernatant of transiently transfected HEK293 EBNA cells) VH: QVQLQESGPGLVKPSQTLSLTCTVTGYSITSDYAWNWIRQPPGKGLEWMGYISYSGSARYNPSLKSRVTISRDTSKNQFSLKLSSVTAADTAVYYCARKGYPAYFAYWGQGTLVTVSS VL: DIQMTQSPSSLSASVGDRVSITCKASQDVSTAVAWYQQKPGQAPRLLIYSASYRYTGVPDRFSGSGSGTDFTLTISSLQAEDVAVYYCQHHYSTPYTFGQGTKLEIKR
1.06	0.00185	1.75e+06	1.63	7A6 VH4/Vκ2 humanized antibody (human IgG1, kappa) (antibody, V domains shown, Tested as IgG in supernatant of transiently transfected HEK293 EBNA cells) VH: QVQLQESGPGLVKPSQTLSLTCTVTGYSITSDYAWNWIRQPPGKGLEWMGYISYSGSARYNPSLKSRVTISRDTSKNQFSLKLSSVTAADTAVYYCARKGYPAYFAYWGQGTLVTVSS VL: DIVMTQSPSSLSASVGDRVSITCKASQDVSTAVAWYQQKPGQAPRLLIYSASYRYTGVPDRFTGSGSGTDFTLTISSLQAEDVAVYYCQHHYSTPYTFGQGTKLEIKR
0.963	0.00173	1.8e+06	1.48	7A6 VH3/Vκ2 humanized antibody (human IgG1, kappa) (antibody, V domains shown, Tested as IgG in supernatant of transiently transfected HEK293 EBNA cells) VH: QVQLQESGPGLVKPSQTLSLTCTVTGYSITSDYAWNWIRQPPGKGLEWMGYISYSGSARYNPSLKSRVTISRDTSKNQFSLKLSSVTAEDTATYYCARKGYPAYFAYWGQGTLVTVSS VL: DIVMTQSPSSLSASVGDRVSITCKASQDVSTAVAWYQQKPGQAPRLLIYSASYRYTGVPDRFTGSGSGTDFTLTISSLQAEDVAVYYCQHHYSTPYTFGQGTKLEIKR
1.2	0.00196	1.63e+06	1.84	7A6 VH3/Vκ4 humanized antibody (human IgG1, kappa) (antibody, V domains shown, Tested as IgG in supernatant of transiently transfected HEK293 EBNA cells) VH: QVQLQESGPGLVKPSQTLSLTCTVTGYSITSDYAWNWIRQPPGKGLEWMGYISYSGSARYNPSLKSRVTISRDTSKNQFSLKLSSVTAEDTATYYCARKGYPAYFAYWGQGTLVTVSS VL: DIQMTQSPSSLSASVGDRVTITCRASQDVSTAVAWYQQKPGQAPRLLIYSASYRYTGVPDRFSGSGSGTDFTLTISSLQAEDVAVYYCQHHYSTPYTFGQGTKLEIKR
1.29	0.00192	1.49e+06	1.98	7A6 VH4/Vκ4 humanized antibody (human IgG1, kappa) (antibody, V domains shown, also called 7A6 VH4/Vk4; 7A6VH4/Vk4) VH: QVQLQESGPGLVKPSQTLSLTCTVTGYSITSDYAWNWIRQPPGKGLEWMGYISYSGSARYNPSLKSRVTISRDTSKNQFSLKLSSVTAADTAVYYCARKGYPAYFAYWGQGTLVTVSS VL: DIQMTQSPSSLSASVGDRVTITCRASQDVSTAVAWYQQKPGQAPRLLIYSASYRYTGVPDRFSGSGSGTDFTLTISSLQAEDVAVYYCQHHYSTPYTFGQGTKLEIKR
